{"source": "the nanobody polyreactivity screen of Harvey et al. (2022)", "data": [{"assay": "yeast display, Sf9 membrane polyspecificity reagent, FACS + sequencing; frameworks hold sequencing errors", "procedure,_shortened": "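Polyreactivity labels are assigned by the sorting gate from which each nanobody was recovered. The gates were low and high (top ~1%), set on anti-HA fluorescence for expression and streptavidin fluorescence for reagent binding. Before sorting, galactose-induced (36–48 hours) yeast display cells were stained for 1 hour at 4 °C with 10% biotinylated, detergent-solubilized Sf9 membrane reagent.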", "values": [{"sequence": "QVQLVESGGGLVQAGGSLRLSCAASGRIFGINVMGWYRQAPGKERELVARITGRGGRTYYADSVKGRFTISRDNAKNTVYLQMNSLKPEDTAVYYCNAQPSTTGTYDYWGQGTQVTVSS", "polyreactivity (PSR sort gate)": "high polyreactivity"}, {"sequence": "QVQLVESGGGLVQAGGSLRLSCAASGSIFLYYAMGWYRQAPGKERELVAGIRRGGRTNYADSVKGRFTISRDNAKNTVYLQMNSLKPEDTAVYYCAKGGYWGQGTQVTVSS", "polyreactivity (PSR sort gate)": "high polyreactivity"}, {"sequence": "QVQLVESGGGIVQAGGTLRLSCAPYGSNYYAMACYRQAPGKDRDFVAAITTRGGGTYYADSVKGRFTISRDNAQNTVYLQMFSLKPVDTAVYVCAAEDYRPRTYVYRYRYYYWGQGTQVTVSS", "polyreactivity (PSR sort gate)": "high polyreactivity"}, {"sequence": "QVQLVESGGGLDQAGGSLRLSCAASGSIFRPYTMGWYRQAPGKERELVAAITGTCGSTRYADSVKGRFTISRDNAKNTVYLQMNSLNPEDNAVYYCAVYPPYRGRYDYRKYDSWGQGTQVTVSS", "polyreactivity (PSR sort gate)": "low polyreactivity"}, {"sequence": "QVQLVESGGGLVQAGGSLRVSCASSGRIFVYDMGWYRQAPGKERELVAAITRGGSTKYADSVKGRFTISRDNAKNTVFLQMNSLKPADTAVYYCAADTRRYRFYYWGQGTQVSVSS", "polyreactivity (PSR sort gate)": "high polyreactivity"}, {"sequence": "QVQLVESGGGLVQAGGSLRLSCAASGSIFGVYTMGWYRQAPGKERELVAAITSAGSTYAYSVKGRFTISRDNAKNTVYLQMNSLKPEDTAVYYCNAQSVLLSLRVELREPHEYWGQGTQVTVSS", "polyreactivity (PSR sort gate)": "low polyreactivity"}, {"sequence": "QVQLVESGGGLVQAGGSLRLSCAASGFIFRYYAMGWYRQAPGKERELVAAIRGNSGNTYYADSVKGRFTISRDNAKNTVYLQMNSLKPEDTAVYYCAKPFNIWGQGTQVTVSS", "polyreactivity (PSR sort gate)": "high polyreactivity"}, {"sequence": "QDQLVESGGGLVQAGGRLRLSCAASGSIFCGNAMGWYRQAPGKERDLVAAITYRSGRTYYADSVKGRFTISRDNAKNTVYFQMNSLKPEDTAVYDCAAEFGGASRYTYNYWGQGTQVTVSS", "polyreactivity (PSR sort gate)": "low polyreactivity"}, {"sequence": "QVQLVESGGGIVQAGGSLRLSCAASGRIFAWNAMGWYRQAPGKERELVAYADSVKGRFTISRDNAKNTVYLQMHSLNPEDSAVYYCAKVVTPYVPGDSYWYDYWGQGTQVTVSS", "polyreactivity (PSR sort gate)": "low polyreactivity"}, {"sequence": "QVQLVESGGGLVQAGGSLRLSCAASGFTFSRYAMGWYRQAPGKERELVAAISYSGGTTYYADSVKGRFTISRDNAKNTVYLQMNSLKPEDTAVYYCNARARGQLVGHYYYWGQGTQVTVSS", "polyreactivity (PSR sort gate)": "high polyreactivity"}, {"sequence": "QVQLVESGGGLVQAGGSLRLSCAASGRIDAYYAMGWYRQAPGKERELVAGISQRGSRTYYADSVKGRFTISRDNAKNTVYLQMNSLKPEDTAVYYCAARDRRSVTMDYWGQGTQVTVSS", "polyreactivity (PSR sort gate)": "high polyreactivity"}, {"sequence": "QVQLVESGGGLVQAGGSLRLSCAASGITFWANAMGWYRQAPGKERELVASIRSSGGSTYYADSVKGRFTISRDNAKNTVYLQMNSLKPEDTAVYYCNARLGPLYVYRQYDSWGQGTQVTVSS", "polyreactivity (PSR sort gate)": "low polyreactivity"}, {"sequence": "QVQLVETGGGLVQAGGSLRLSCAASGSIFSIYAMGWYRQAPGKERELVAAISWSGGSTYYADSVKGRFTISRDNAKNTVYLQMNSLKPEDTAVYYCLRQDYHYHPYDYWGQGTQVTVSS", "polyreactivity (PSR sort gate)": "low polyreactivity"}, {"sequence": "QVQLVESGGGLVQAGGSLRLSCAASGSIFNQYPMGWYRQAPGKERELVAAISSGSTYYADSVKGRFIISRDNAKITVYLQMNSMKAEDTAVNNCAKDRHSPYWAMDYWGQGTQVTVSS", "polyreactivity (PSR sort gate)": "high polyreactivity"}, {"sequence": "QVQLVESGGGLVQAGGSLRLSCAASGRIFYRYAMGWYRQAPGKERELVAAITGSVGSTYYADSVKGRFTISRDNAKNTVYLQMNSLKPEDTAVYYCAREYHGDSRRYDYWGQGTQVTVSS", "polyreactivity (PSR sort gate)": "high polyreactivity"}, {"sequence": "QVQLVESGGGLVQAGGSLRLSCAATGSIFSYYDMAWYRQAPGNERELVAGISRGGSTNYADSVKGRFTISRDNGKNTVYLQMNSLKEEDTAVYYCNADQSSRTYPFRRSRRSWLYGYWGQGTQVTVSS", "polyreactivity (PSR sort gate)": "low polyreactivity"}]}]}
